Measurements as given in PMC3749527.

Target: Respiratory syncytial virus nucleoprotein N, R234A mutant (human respiratory syncytial virus) (UniProt P03418)

Respiratory syncytial virus nucleoprotein N, R234A mutant (from UniProt P03418 1-391) (natural protein)
polymerase activity (viral RNA synthesis) in an HRSV plasmid-based minigenome luciferase assay in BSRT7/5 cells, compared to wt N: 68 % of wt N
